Laboratory results: article PMC5836505

Experiments:
GST-FUS [1] = biological target: T1, GST-FUS (Homo sapiens, UniProt P35637 1-526); assay: EMSA
His-FUS = His-FUS (UniProt P35637 1-526); assay: single-molecule TIRF
GST-FUS [2] = biological target: T1, GST-FUS; assay: EMSA; remark: listed apart in the source
GST-FUS [3] = biological target: T1, GST-FUS; assay: competition

T1 sequence (P35637 whole entry): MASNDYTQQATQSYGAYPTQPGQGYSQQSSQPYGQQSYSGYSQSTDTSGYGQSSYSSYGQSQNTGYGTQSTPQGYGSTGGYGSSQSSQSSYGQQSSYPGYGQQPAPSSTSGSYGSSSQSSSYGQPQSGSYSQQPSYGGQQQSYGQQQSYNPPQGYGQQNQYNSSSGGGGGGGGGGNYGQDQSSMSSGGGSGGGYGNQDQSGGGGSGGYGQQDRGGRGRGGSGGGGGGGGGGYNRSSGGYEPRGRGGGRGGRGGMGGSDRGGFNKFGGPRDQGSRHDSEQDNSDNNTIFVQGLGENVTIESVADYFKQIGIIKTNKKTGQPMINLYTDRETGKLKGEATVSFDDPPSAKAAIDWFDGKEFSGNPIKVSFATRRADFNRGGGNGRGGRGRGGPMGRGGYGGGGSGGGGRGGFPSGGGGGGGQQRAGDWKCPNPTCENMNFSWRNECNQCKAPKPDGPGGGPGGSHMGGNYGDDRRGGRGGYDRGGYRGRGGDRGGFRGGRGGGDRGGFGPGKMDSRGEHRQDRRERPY
His-FUS, sequence (P35637 whole entry): as above

Binder: UUGUAUUUUGAGCUAGUUUGGUGAC (ssRNA) [GGUG oligo]
- binding result (GST-FUS [1]): binds

Binder: UAAUACUGCCGGGUAAUGAUGGA (ssRNA) [miR-200c (Cy5)]
- binding result (His-FUS): binds
- binding result (GST-FUS [2]): binds

Binder: UAAUACUGCCGGGUAAUGAUGGA (ssRNA) [miR-200c (untagged)]
- binding result (GST-FUS [3]): binds
